For two molecules, interaction score results are on record in publication PMC10397247.

Holding throughout (assay): two-hybrid library CCNG1;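 also: natural log of median RNA to DNA barcode read ratio; higher means stronger binding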
For one assay, the target named is T1, 4H570-bN.
T1 chain: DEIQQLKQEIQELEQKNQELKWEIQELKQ

In another assay the target is T2, 4H2697-bA.
T2 chain: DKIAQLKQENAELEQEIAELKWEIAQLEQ

The next assay addresses T3, 4H568-bA.
T3 chain: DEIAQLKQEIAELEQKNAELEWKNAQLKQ

The next assay deals with T4, 4H3843-bA.
T4 chain: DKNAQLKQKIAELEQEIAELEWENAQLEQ

Another assay addresses T5, 4H1446-bA.
T5 chain: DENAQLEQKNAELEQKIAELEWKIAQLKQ

The target of another assay is T6, 4H72-bA.
T6 chain: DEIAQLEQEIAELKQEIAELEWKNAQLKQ

For the next assay, the target named is T7, 4H967-bA.
T7 chain: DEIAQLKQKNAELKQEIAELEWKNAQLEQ

The target in the next assay is T8, 4H3189-bA.
T8 chain: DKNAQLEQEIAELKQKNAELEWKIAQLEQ

The target of a further assay is T9, 4H687-bA.
T9 chain: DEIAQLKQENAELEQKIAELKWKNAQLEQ

The next assay addresses T10, 4H607-bA.
T10 chain: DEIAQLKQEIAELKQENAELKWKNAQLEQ

Another assay has as its target T11, 4H883-bA.
T11 chain: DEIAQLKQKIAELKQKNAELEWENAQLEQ

In a further assay the target is T12, 4H2610-bA.
T12 chain: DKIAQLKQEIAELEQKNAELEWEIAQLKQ

The target of another assay is T13, 4H3606-bA.
T13 chain: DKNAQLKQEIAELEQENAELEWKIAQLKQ

A further assay concerns the target T14, 4H331-bA.
T14 chain: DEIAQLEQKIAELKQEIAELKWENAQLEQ

The target of a further assay is T15, 4H918-bA.
T15 chain: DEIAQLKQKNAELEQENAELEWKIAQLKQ

The next assay addresses T16, 4H1845-bA.
T16 chain: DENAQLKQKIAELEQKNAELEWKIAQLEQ

For a further assay, the target named is T17, 4H370-bA.
T17 chain: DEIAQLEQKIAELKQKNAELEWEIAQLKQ

The next assay deals with T18, 4H462-bA.
T18 chain: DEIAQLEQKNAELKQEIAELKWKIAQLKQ

The next assay addresses T19, 4H2667-bA.
T19 chain: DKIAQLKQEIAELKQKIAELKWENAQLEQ

A further assay deals with T20, 4H2576-bA.
T20 chain: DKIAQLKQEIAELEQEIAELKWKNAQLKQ

For the next assay, the target named is T21, 4H1369-bA.
T21 chain: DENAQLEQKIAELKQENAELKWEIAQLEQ

In another assay the target is T22, 4H953-bA.
T22 chain: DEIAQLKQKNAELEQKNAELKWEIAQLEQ

The target of the next assay is T23, 4H797-bA.
T23 chain: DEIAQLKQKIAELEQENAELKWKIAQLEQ

For a further assay, the target named is T24, 4H3782-bA.
T24 chain: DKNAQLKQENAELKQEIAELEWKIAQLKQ

Another assay concerns the target T25, 4H3855-bA.
T25 chain: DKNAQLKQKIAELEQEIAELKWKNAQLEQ

The next assay addresses T26, 4H4001-bA.
T26 chain: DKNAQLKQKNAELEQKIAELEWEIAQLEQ

The next assay concerns the target T27, P8A-bA.
T27 chain: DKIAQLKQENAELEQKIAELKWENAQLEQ

A further assay deals with T28, P1A-bA.
T28 chain: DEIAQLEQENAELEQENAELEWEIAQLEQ

The target of another assay is T29, P2A-bA.
T29 chain: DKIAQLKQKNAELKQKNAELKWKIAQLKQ

The next assay deals with T30, P6A-bA.
T30 chain: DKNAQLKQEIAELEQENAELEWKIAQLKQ

For a further assay, the target named is T31, P9A-bA.
T31 chain: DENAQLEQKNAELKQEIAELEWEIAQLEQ

Another assay concerns the target T32, P4A-bA.
T32 chain: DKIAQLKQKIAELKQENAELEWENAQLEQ

A further assay has as its target T33, P7A-bA.
T33 chain: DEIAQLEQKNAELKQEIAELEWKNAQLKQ

Another assay has as its target T34, P5A-bA.
T34 chain: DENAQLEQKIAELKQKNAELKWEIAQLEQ

In a further assay the target is T35, P3A-bA.
T35 chain: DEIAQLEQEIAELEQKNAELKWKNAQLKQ

Another assay addresses T36, P12A-bA.
T36 chain: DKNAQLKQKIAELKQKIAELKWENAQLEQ

B1: 4H1369-bA (peptide)
chain: DENAQLEQKIAELKQENAELKWEIAQLEQ
For B1, the interaction score was 0.413 with 4H570-bN; -0.782 with 4H2697-bA; -1.77 with 4H568-bA; -0.634 with 4H3843-bA; -0.956 with 4H1446-bA; -1.2 with 4H72-bA. In addition, the interaction score in the assay with 4H967-bA is -1.41; with 4H3189-bA it was -0.843; in the assay with 4H687-bA it was -0.0949; with 4H607-bA, -1.2; with 4H883-bA it was -1.53; with 4H2610-bA, -0.708. The interaction score in the assay with 4H3606-bA is 2.35; with 4H331-bA, -0.963; with 4H918-bA, -1.28; with 4H1845-bA it was -1.43; with 4H370-bA, -1.03; with 4H462-bA, -0.339. Moreover, the interaction score with 4H2667-bA is -0.912; with 4H2576-bA it was -0.209; with 4H1369-bA, -0.294; with 4H953-bA it was -1.23; in the assay with 4H797-bA it was -0.836; with 4H3782-bA, -0.939. Also, the values for the interaction score in the assay with 4H3855-bA and with 4H4001-bA were -1.08 and -0.513, respectively.

B2: P12A-bA (peptide)
chain: DKNAQLKQKIAELKQKIAELKWENAQLEQ
In the case of B2, the interaction score with P8A-bA was -1.32; with P1A-bA, -0.14; with P2A-bA, -1.29; in the assay with P6A-bA it was -0.314; in the assay with P9A-bA, 0.0326; in the assay with P4A-bA it was -1.03. Also, the interaction score with P7A-bA was -1.88; in the assay with P5A-bA, -1.16; with P3A-bA, 0.536; with P12A-bA, -0.937.
